Reference: PMC3887095

Experiments:
[1] = molecular target: RKLM+T107I HIV-1 CA-NC tubular complexes (HIV-1); assay: co-sedimentation; 5 µl of assembled CA-NC complexes mixed with 125 µg of HeLa cell lysate, NaCl adjusted to 150 mM, 1 h at room temperature; pelleted through a 60% sucrose cushion at 100,000 x g for 1 h at 4°C; CPSF6 in the pellet measured by LI-COR and normalized by CA-NC
[2] = molecular target: RKLM+S41A HIV-1 CA-NC tubular complexes (HIV-1); assay: as above
[3] = molecular target: T54A+A105T HIV-1 CA tubes (HIV-1); assay: co-sedimentation; assembled CA tubes (5 µM) incubated 1 h with HeLa cell extracts (500, 250 or 125 µg) in 100 µl of 50 mM Tris pH 8, 150 mM NaCl, 5 mM MgCl2, 0.5 mM EDTA; pelleted 5 min at 5,000 x g and washed; non-reducing SDS-PAGE and quantitative immunoblotting for CPSF6 and CA; in one experiment with or without 5 µM CsA
[4] = molecular target: RKLM+T107I HIV-1 CA tubes (HIV-1); assay: as above

endogenous CPSF6 (from UniProt Q16630 1-551) (natural protein)
reduced binding to CPSF6, percent [1]: 50%
percent weaker binding than RKLM [2]: 7%
quantity of CPSF6 brought down relative to T54A CA tubes (fold of T54A CA tubes) [3]: 0.33
reduced binding to CPSF6, percent [4]: 50%
